B1: ColQ PRAD peptide (17 amino acid ColQ PRAD polypeptide) (peptide)
peptide: CCLLTPPPPPLFPPPFF
B2: SEQ ID NO: 9 (peptide)
peptide: KRSVNKCCLLTPPPPPLFPPPFFKDEL
B3: ColQ PRAD-KDEL peptide (peptide)
peptide: CCLLTPPPPPLFPPPFFKDEL
B4: SEQ ID NO: 6 (peptide)
peptide: VNKCCLLTPPPPPLFPPPFFKDEL
B5: SEQ ID NO: 8 (peptide)
peptide: VNKCCLLTPPPPPLFPPPFFTETLDEL
B6: SEQ ID NO: 11 (peptide)
peptide: KRSVNKCCLLTPPPPPLFPPPFFTETNILKDEL

The first test concerns the target AChE of primary quail muscle cells (quail). Kind of test: cell-based or functional assay.
As to B1, the “tetrameric G4 AChE activity in the medium (velocity sedimentation, 10 uM peptide overnight)” value was greater than 2 fold.

Another test addresses AChE expressed in COS cells (human and/or mouse AChE) (human and/or mouse). Kind of test: cell-based or functional assay.
B2: the “G4 AChE level” value amounted to 2.37.
For the molecule B3, the “G4 AChE level” value worked out at 2.37.
For the molecule B4, the “G4 AChE level” value is 2.26.
On the same count and under the same terms, for B5 the value was 2.17; for B6, 2.14.
